Test system: T1, cyclic peptide CDMWERVSRC
T1 sequence: CDMWERVSRC

Sequence of Native seprase isolated from LOX cells (chain): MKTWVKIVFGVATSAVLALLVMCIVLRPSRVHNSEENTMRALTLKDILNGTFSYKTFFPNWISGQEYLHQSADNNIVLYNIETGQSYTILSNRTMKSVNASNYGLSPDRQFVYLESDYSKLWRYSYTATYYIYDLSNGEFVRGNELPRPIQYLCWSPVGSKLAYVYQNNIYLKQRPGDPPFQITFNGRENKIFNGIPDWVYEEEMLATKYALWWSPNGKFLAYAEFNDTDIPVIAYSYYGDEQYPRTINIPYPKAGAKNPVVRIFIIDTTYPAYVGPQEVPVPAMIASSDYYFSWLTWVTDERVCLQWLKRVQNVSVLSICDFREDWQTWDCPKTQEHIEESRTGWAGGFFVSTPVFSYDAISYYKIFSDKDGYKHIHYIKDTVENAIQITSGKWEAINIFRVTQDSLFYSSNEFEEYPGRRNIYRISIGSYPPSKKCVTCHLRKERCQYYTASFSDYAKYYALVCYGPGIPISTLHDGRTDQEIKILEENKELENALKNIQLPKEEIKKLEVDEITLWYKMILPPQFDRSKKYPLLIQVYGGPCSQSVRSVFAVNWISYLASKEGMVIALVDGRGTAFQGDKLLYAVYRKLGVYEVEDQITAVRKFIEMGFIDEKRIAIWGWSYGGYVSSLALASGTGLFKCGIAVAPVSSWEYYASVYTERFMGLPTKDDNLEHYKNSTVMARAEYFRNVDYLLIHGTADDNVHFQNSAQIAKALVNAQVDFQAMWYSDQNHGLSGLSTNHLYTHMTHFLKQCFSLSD

For Native seprase isolated from LOX cells, the “increase of the catalytic Km for Gly-Pro-pNA (Lineweaver-Burke analysis)” value was “When the concentration of CDMWERVSRC [SEQ ID NO: 3] was 62.5 mM, the catalytic Km value increased by 5 times (from 0.7 mM to 3.5 mM)”.

Reference: patent publication US20060172938
